“Also recorded” adds a separate entry of the source.
Assay: Pharmacokinetic evaluation after intraperitoneal dose (serum ELISA)
Format: in vivo, rat
Settings: single intraperitoneal dose 0.5 mg/kg
Protocol: CVR-2016-799R1 signaling and the other two sets were to evaluate the pharmacokinetic properties of native FGF1 and modified FGF1 (FGF1^ΔHBS). The first set of experiments was for the ischemia/reperfusion study in which animals were divided into six groups as follows: (1) saline group: saline treatment given intravenously for 10 minutes immediately upon reperfusion, (2) heparin group: heparin, 60 U/kg intravenous (i.v.) bolus, given immediately at reperfusion+12 U/kg/hr i.v. infusion for 120 minutes of reperfusion, (3) FGF1 group: FGF1, 10 μg/kg i.v. infusion, given for 10 minutes immediately at reperfusion, (4) FGF1+heparin: heparin, 60 U/kg bolus, given immediately upon reperfusion followed by FGF1, 10 μg/kg i.v. infusion, given for 10 minutes and 12 U/kg/hr i.v. infusion given for 110 minutes of reperfusion, (5) modified FGF1 (FGF1^ΔHBS) group: FGF1^ΔHBS, 10 μg/kg i.v. infusion, given for 10 minutes, or (6) FGF1^ΔHBS+heparin: heparin, 60 U/kg bolus, given immediately at reperfusion followed by FGF1^ΔHBS, 10 μg/kg i.v. infusion, given for 10 minutes and 12 U/kg/hr i.v. infusion for 110 minutes of reperfusion. All rats were subjected to 30 minutes of regional ischemia and 120 minutes of reperfusion. Drugs were administered at the onset of reperfusion via the jugular vein (FIG. 2A). […] A total of ninety-six rats was completed for the I/R study. Sample size for each group ranged from 9-16 depending on the power analysis. A total of thirty-five rats were excluded from the study based on the lack of cyanosis of the heart or typical elevation of the ST segment in the electrocardiogram during ischemia, and death from malignant arrhythmia. For the biodistribution or FGF1 signaling study, rats were randomly divided into six groups as described above (FIG. 2B). Following drug treatment (immediately following 15 minutes of treatment or 105 minutes post-treatment at the point which mimics the length of time of reperfusion), solid organs and blood (see sections “Tissue collection for exogenous FGF1 biodistribution” and “Cardiac preparation to detect the activation of FGF1 downstream molecules”) were collected. A total of 33 rats were used for biodistribution and FGF1 signaling studies, and 3 rats were excluded due to anesthetic overdose. Also, a total of 8 plasma samples were excluded because of hemolysis. For elimination half-life of native FGF1 and FGF1^ΔHBS, 12 rats were randomly divided into two groups and treated intraperitoneally with either FGF1 form as described in the section “Pharmacokinetic evaluation of exogenous FGF1 or FGF1^ΔHBS ”.
The in vivo half-life of FGF1 or FGF^ΔHBS (given as a single, intraperitoneal dose of
0.5 mg/kg body weight) was assessed, using the human FGF1 immunoassay ELISA kit (R&D System, MN), from blood (i.e., serum) collected at varying times as described previously. The pharmacokinetic parameters of FGF1 or FGF1^ΔHBS were analyzed using the Drug and […]

B1: FGF1^ΔHBS: FGF1 mutant carrying the K127D/K128Q/K133V triple mutation in its HS-binding region; reduced heparin-binding affinity (protein)
chain: MAEGEITTFTALTEKFNLPPGNYKKPKLLYCSNGGHFLRILPDGTVDGTRDRSDQHIQLQLSAESVGEVYIKSTETGQYLAMDTDGLLYGSQTPNEECLFLERLEENHYNTYISKKHAEKNWFVGLDQNGSCVRGPRTHYGQKAILFLPLPVSSD
non-compartmental
  absorption phase half-life (in words): not significantly different from FGF1
non-compartmental, 0.5 mg/kg
  elimination phase half-life (in words): not significantly different from FGF1
serum
  area-under-curve (AUC), fold greater than FGF1: 2 fold
  maximum serum concentration (Cmax), fold greater than FGF1: 4 fold
0.5 mg/kg
  time to reach maximum serum concentration (Tmax) (in words): reached earlier than with FGF1; also recorded: relatively fast
